Results on two compounds are retold here after patent US20080312152A1, “Glycosylated Probnp” (priority 2005, published 2008).

“Also recorded” adds a separate entry of the source.

For series [1] the following is noted: BNP as active hormone; cited from earlier work.
For series [2], the target named is T1, GC-A receptor (Homo sapiens, UniProt P16066).
T1 sequence (P16066 33-1061): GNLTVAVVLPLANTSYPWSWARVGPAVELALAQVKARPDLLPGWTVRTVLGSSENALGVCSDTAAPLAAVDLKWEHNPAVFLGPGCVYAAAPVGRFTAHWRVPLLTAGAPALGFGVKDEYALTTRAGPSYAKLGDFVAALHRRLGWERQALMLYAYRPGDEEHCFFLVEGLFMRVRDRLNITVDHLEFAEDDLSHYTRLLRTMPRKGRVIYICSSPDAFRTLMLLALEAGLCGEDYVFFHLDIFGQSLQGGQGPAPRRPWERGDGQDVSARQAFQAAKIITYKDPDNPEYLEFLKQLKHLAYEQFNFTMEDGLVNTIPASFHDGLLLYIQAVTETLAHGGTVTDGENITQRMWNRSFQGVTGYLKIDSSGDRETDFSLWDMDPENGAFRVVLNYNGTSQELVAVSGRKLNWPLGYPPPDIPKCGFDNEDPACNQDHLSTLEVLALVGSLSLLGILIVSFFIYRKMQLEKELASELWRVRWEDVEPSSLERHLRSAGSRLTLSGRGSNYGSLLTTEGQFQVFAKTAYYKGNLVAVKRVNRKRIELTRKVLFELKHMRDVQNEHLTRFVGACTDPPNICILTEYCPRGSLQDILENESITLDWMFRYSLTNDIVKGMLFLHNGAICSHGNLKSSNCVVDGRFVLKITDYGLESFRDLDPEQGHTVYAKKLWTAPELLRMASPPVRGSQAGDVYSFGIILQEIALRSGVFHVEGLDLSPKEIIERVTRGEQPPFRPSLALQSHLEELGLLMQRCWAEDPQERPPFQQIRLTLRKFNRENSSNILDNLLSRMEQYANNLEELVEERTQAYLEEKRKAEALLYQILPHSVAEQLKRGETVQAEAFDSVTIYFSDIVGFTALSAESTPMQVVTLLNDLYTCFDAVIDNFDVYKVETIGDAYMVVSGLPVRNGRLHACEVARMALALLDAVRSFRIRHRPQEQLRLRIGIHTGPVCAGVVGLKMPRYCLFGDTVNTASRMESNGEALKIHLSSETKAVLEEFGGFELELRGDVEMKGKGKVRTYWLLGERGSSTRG
Description: Competitive binding to GC-A receptor (FIG. 7). The conditions noted are these: glycosylated recombinant human proBNP vs hBNP. The source says:
FIG. 7 is a graph showing competitive binding of glycosylated recombinant human proBNP to GC-A receptor relative to hBNP.

The target in a further series is T2, NPR-A receptor (Homo sapiens, UniProt P16066).
T2 construct: endogenous in cells; host or cells: human aorta endothelial cells
T2 sequence (P16066 33-1061): T1 sequence (P16066 33-1061)
Description: NPR-A activation in human aorta endothelial cells (FIG. 8). The format is cell-based. The source says:
The graph provides a direct activity comparison of hBNP relative to proBNP.
With respect to proBNP and BNP, total “Natriuretic Activity” in a blood sample is defined by the cumulative activity of proBNP and hBNP. When measuring against this receptor however it should be appreciated that the activity of other relevant natriuretic peptides, such as ANP and proANP can and should also be taken into consideration.

The target of series [3] is T1, GC-A receptor. The series can be described thus: Cyclic GMP release from cells expressing the human GC-A receptor. The series is classed as cell-based. The settings on record: vs hBNP. The protocol:
Pursuant to the present invention, the effects of hBNP, unglycosylated proBNP, and O-link glycosylated proBNP on cyclic GMP release from cells expressing the human GC-A receptor were determined.

Series [4] is described as follows: Pharmacokinetics after i.v. bolus in cynomolgus monkeys (FIGS. 9, 10). The series is classed as in vivo, cynomolgus monkey. The settings on record: for circulating (plasma) half-life compared to hBNP: i.v., male Cyno monkeys. The source says: Six adult male cynomolgus monkeys (5-6 kg) from the same colony were randomly selected for this study. In the morning of the experiment day, each monkey was quickly anesthetized by inhalation of 5% isoflurance/95% oxygen. Once the animal was unconscious, the isoflurance was reduced to 1.5% and a sterile catheter was inserted into the urinary bladder. Another catheter was connected to a cephalic vein in the right or left arm of the monkey for compound delivery. The anesthesia was discontinued. The conscious monkey was seated in a restraining chair and allowed to stabilize for 1 hour. The conscious monkey received two bolus doses (1 nmol/kg and 3 nmol/kg) of each human BNP analog in 1 ml of saline via cephalic vein injection followed by a flush with 3 ml of saline. One hour of washing-out period was required between the two administrations. Two ml of blood were drawn into a EDTA tube containing 150 kallikrein-inactivating units aprotonin via a cephalic vein in the another arm of the monkey at the following 8 time points: baseline (within 2 min prior to dosing), 2, 5, 10, 15, 30, 60 and 120 min. The collected samples were kept on ice prior to centrifugation at 4° C. The plasma from each time point was aliquoted to 4 Eppendorff tubes with approximately […]. For urine collection, the bladder was emptied and flushed with 5 ml of sterile water. The urine was collected to a 15 ml regular polypropylene tube in every 20 min at the following time points: −60, −40, −20, 0, 20, 40, 60, 80, 100 and 120 min. Weighing of tube was required before and after collection. The urine sample from each time point was aliquoted to 4 Eppendorf tubes with […]. All plasma and urine samples were kept at −80° C. and delivered on dry ice. Material supply: […] of hBNP were required for 8 cynos with the body weight of 6 kg at the doses of 1 nmol/kg and 3 nmol/kg, respectively. The material for each dose was weighed to a 15 ml sterile tube and dissolved in 8 ml of sterile saline prior to injection. Approximately 1 ml of the material at each dose was injected to each animal. The injection volume (ml) of the material to each animal was equal to animal body weight (kg) divided by six.

In another series the test system is cGMP. Description: cGMP levels in plasma and urine after i.v. bolus in cynomolgus monkeys. The format is in vivo, cynomolgus monkey. The source says: Six adult male cynomolgus monkeys (5-6 kg) from the same colony were randomly selected for this study. In the morning of the experiment day, each monkey was quickly anesthetized by inhalation of 5% isoflurance/95% oxygen. Once the animal was unconscious, the isoflurance was reduced to 1.5% and a sterile catheter was inserted into the urinary bladder. Another catheter was connected to a cephalic vein in the right or left arm of the monkey for compound delivery. The anesthesia was discontinued. The conscious monkey was seated in a restraining chair and allowed to stabilize for 1 hour. The conscious monkey received two bolus doses (1 nmol/kg and 3 nmol/kg) of each human BNP analog in 1 ml of saline via cephalic vein injection followed by a flush with 3 ml of saline. One hour of washing-out period was required between the two administrations. Two ml of blood were drawn into a EDTA tube containing 150 kallikrein-inactivating units aprotonin via a cephalic vein in the another arm of the monkey at the following 8 time points: baseline (within 2 min prior to dosing), 2, 5, 10, 15, 30, 60 and 120 min. The collected samples were kept on ice prior to centrifugation at 4° C. The plasma from each time point was aliquoted to 4 Eppendorff tubes with approximately […]. For urine collection, the bladder was emptied and flushed with 5 ml of sterile water. […]

On to `CC[C@H](C)[C@@H]1NC(=O)[C@H](CCCNC(=N)N)NC(=O)[C@H](CC(=O)O)NC(=O)[C@H](CCSC)NC(=O)[C@H](CCCCN)NC(=O)[C@H](CCCNC(=N)N)NC(=O)CNC(=O)[C@H](Cc2ccccc2)NC(=O)[C@@H](NC(=O)CNC(=O)[C@H](CO)NC(=O)CNC(=O)[C@H](CCC(N)=O)NC(=O)[C@@H](NC(=O)[C@H](CCSC)NC(=O)[C@H](CCCCN)NC(=O)[C@@H]2CCCN2C(=O)[C@@H](N)CO)C(C)C)CSSC[C@@H](C(=O)N[C@@H](CCCCN)C(=O)N[C@H](C(=O)N[C@@H](CC(C)C)C(=O)N[C@@H](CCCN=C(N)N)C(=O)N[C@@H](CCCN=C(N)N)C(=O)N[C@@H](Cc2cnc[nH]2)C(=O)O)C(C)C)NC(=O)CNC(=O)[C@H](CC(C)C)NC(=O)CNC(=O)[C@H](CO)NC(=O)[C@H](CO)NC(=O)[C@H](CO)NC(=O)[C@H](CO)NC1=O` [hBNP], for which the half-life entry in series [1] is “approximately 20 minutes”.
“proBNP: 108 amino acid human BNP precursor protein, O-link glycosylated, recombinantly expressed in CHO cells”: the “competitive binding to GC-A receptor relative to hBNP” value with GC-A receptor [2] is listed as “less active”. Further, in the series with NPR-A receptor, the “activity against the NPR-A receptor” value is “exhibit activity” and the “potency on NPR-A activation compared to hBNP” value was “lower activity than hBNP; also recorded: reduced potency”. In the series with GC-A receptor [3], the “inducing cellular cyclic GMP release (receptor activation)” value is recorded as “equivalent to hBNP” and the “potency in cyclic GMP release assay” value is “less potent than hBNP”. Also, the “PK profile compared to BNP” value in series [4] (conscious restrained cynomolgus monkeys, i.v. bolus) is listed as “extended PK profile”. The “metabolism in the blood” value in series [4] (cynomolgus monkeys) is listed as “not metabolized in the blood”. In series [4], the “circulating (plasma) half-life compared to hBNP” value is “longer plasma half-life; also recorded: substantial increase in circulating half-life”. Moreover, the “circulating (plasma) half-life compared to hBNP” value in series [4] (listed as glycosylated proBNP) is given as “greater than that of hBNP”. Also, the “effects on cGMP levels in plasma compared to BNP” value in the series with cGMP (plasma) is given as “reduced effects”. In addition, the “effects on cGMP levels in urine compared to BNP” value in the series on cGMP (urine) is “reduced effects”.
